B1: Ribonucleoside-diphosphate reductase subunit M2 (Homo sapiens), P31350 (parent)
chain: MLSLRVPLAPITDPQQLQLSPLKGLSLVDKENTPPALSGTRVLASKTARRIFQEPTEPKTKAAAPGVEDEPLLRENPRRFVIFPIEYHDIWQMYKKAEASFWTAEEVDLSKDIQHWESLKPEERYFISHVLAFFAASDGIVNENLVERFSQEVQITEARCFYGFQIAMENIHSEMYSLLIDTYIKDPKEREFLFNAIETMPCVKKKADWALRWIGDKEATYGERVVAFAAVEGIFFSGSFASIFWLKKRGLMPGLTFSNELISRDEGLHCDFACLMFKHLVHKPSEERVREIIINAVRIEQEFLTEALPVKLIGMNCTLMKQYIEFVADRLMLELGFSKVFRVENPFDFMENISLEGKTNFFEKRVGEYQRMGVMSSPTENSFTLDADF
partner: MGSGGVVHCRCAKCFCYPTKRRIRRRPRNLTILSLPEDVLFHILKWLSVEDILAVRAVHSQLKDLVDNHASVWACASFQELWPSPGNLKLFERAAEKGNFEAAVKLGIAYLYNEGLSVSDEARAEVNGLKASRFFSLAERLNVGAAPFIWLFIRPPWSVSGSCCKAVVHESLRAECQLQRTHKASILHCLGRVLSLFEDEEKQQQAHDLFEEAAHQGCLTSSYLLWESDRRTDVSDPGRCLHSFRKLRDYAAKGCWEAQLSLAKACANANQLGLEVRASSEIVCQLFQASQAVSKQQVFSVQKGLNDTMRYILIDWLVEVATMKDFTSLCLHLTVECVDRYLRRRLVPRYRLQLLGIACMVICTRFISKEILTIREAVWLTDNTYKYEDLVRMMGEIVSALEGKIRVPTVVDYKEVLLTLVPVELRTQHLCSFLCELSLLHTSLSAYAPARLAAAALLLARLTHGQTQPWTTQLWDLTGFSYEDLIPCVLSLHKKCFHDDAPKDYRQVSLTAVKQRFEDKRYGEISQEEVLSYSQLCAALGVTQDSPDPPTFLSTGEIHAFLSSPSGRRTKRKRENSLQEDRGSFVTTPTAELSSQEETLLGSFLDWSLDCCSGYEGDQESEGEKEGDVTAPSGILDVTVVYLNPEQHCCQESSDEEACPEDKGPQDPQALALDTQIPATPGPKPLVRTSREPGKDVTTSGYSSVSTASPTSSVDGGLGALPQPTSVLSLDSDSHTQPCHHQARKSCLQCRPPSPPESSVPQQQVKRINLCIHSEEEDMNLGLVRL
B2: Cyclin-F (Homo sapiens), P41002 (parent)
chain: B1 partner
B3: Cyclin-F (Homo sapiens), P41002 (parent)
chain: B1 partner
partner: B1 chain

Variants of: B1
Settings: with ccnf_human CCNF

Question: R49A;I51A was tested. Which “effect of a mutation on the interaction” value did it give?
Answer: disrupting interaction strength

Question: With T33A as the variant, how does the “effect of a mutation on the interaction” value read?
Answer: decreasing interaction strength

Variants of: B1
Settings: with ccnf_human CCNF
Remark: another data set of the same source

Question: How did the “effect of a mutation on the interaction” value turn out when T33A was run?
Answer: disrupting interaction strength

Variants of: B2
Settings: with cp110_human CCP110, O43303
cp110_human CCP110, O43303, sequence (O43303 whole entry): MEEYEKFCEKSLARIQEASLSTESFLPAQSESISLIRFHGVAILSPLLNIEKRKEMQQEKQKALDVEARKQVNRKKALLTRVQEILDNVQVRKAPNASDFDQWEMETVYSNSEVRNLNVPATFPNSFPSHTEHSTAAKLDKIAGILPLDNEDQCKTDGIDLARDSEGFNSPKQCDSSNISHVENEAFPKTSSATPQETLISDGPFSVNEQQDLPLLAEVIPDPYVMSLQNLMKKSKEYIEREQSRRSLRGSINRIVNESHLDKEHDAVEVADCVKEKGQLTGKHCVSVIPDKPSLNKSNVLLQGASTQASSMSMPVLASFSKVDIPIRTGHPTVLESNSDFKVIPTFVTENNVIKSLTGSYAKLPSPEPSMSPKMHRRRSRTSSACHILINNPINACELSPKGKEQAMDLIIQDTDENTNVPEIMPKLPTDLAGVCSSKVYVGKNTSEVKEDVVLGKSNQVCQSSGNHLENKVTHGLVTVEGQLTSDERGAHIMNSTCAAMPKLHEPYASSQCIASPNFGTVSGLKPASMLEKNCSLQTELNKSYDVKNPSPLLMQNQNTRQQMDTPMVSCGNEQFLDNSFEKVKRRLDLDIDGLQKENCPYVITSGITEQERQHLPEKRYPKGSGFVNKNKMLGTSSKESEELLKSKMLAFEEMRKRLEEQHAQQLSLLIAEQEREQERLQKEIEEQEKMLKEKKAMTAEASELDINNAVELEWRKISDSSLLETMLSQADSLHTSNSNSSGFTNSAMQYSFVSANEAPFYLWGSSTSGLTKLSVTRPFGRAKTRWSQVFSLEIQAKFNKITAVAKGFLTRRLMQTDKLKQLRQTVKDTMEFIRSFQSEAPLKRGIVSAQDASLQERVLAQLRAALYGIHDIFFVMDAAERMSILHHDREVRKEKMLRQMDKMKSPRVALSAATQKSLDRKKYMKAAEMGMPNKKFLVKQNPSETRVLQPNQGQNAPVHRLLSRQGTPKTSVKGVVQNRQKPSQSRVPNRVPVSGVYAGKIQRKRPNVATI

Question: With L35A;P36A as the variant, how does the “effect of a mutation on the interaction” value read?
Answer: increasing interaction strength

Variants of: B3
Settings: with rir2_human RRM2, P31350

Question: Which “effect of a mutation on the interaction” value does the source give for L35A;P36A here?
Answer: increasing interaction strength
